Here are results for 92 variants from IntAct's records for PubMed 29039417.

First the molecules themselves.
B1: Protein PTHB1 (Homo sapiens), Q3SYG4 (parent)
chain: MSLFKARDWWSTILGDKEEFDQGCLCLANVDNSGNGQDKIIVGSFMGYLRIFSPHPAKTGDGAQAEDLLLEVDLRDPVLQVEVGKFVSGTEMLHLAVLHSRKLCVYSVSGTLGNVEHGNQCQMKLMYEHNLQRTACNMTYGSFGGVKGRDLICIQSMDGMLMVFEQESYAFGRFLPGFLLPGPLAYSSRTDSFLTVSSCQQVESYKYQVLAFATDADKRQETEQQKLGSGKRLVVDWTLNIGEQALDICIVSFNQSASSVFVLGERNFFCLKDNGQIRFMKKLDWSPSCFLPYCSVSEGTINTLIGNHNNMLHIYQDVTLKWATQLPHIPVAVRVGCLHDLKGVIVTLSDDGHLQCSYLGTDPSLFQAPNVQSRELNYDELDVEMKELQKIIKDVNKSQGVWPMTEREDDLNVSVVVSPNFDSVSQATDVEVGTDLVPSVTVKVTLQNRVILQKAKLSVYVQPPLELTCDQFTFEFMTPDLTRTVSFSVYLKRSYTPSELEGNAVVSYSRPTDRNPDGIPRVIQCKFRLPLKLICLPGQPSKTASHKITIDTNKSPVSLLSLFPGFASQSDDDQVNVMGFHFLGGARITVLASKTSQRYRIQSEQFEDLWLITNELILRLQEYFEKQGVKDFACSFSGSIPLQEYFELIDHHFELRINGEKLEELLSERAVQFRAIQRRLLARFKDKTPAPLQHLDTLLDGTYKQVIALADAVEENQGNLFQSFTRLKSATHLVILLIALWQKLSADQVAILEAAFLPLQEDTQELGWEETVDAAISHLLKTCLSKSSKEQALNLNSQLNIPKDTSQLKKHITLLCDRLSKGGRLCLSTDAAAPQTMVMPGGCTTIPESDLEERSVEQDSTELFTNHRHLTAETPRPEVSPLQGVSE
partner: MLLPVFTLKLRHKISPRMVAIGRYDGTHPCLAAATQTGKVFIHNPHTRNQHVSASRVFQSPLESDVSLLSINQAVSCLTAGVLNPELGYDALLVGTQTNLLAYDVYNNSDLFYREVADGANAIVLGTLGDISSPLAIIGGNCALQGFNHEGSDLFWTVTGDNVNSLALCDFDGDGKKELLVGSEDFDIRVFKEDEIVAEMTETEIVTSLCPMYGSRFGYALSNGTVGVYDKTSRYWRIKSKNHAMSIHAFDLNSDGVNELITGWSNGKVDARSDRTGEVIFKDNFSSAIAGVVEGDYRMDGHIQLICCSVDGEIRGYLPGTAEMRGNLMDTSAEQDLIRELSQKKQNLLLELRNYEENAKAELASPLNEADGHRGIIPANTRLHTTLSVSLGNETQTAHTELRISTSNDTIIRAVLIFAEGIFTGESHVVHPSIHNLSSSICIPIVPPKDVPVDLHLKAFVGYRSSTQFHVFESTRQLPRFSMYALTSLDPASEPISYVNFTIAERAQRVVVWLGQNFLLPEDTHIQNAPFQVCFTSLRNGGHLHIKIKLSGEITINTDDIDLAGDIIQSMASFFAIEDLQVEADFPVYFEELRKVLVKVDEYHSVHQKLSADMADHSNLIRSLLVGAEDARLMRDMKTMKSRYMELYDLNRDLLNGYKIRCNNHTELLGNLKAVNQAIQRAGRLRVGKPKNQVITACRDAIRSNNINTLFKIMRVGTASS

The variants in the assay derive from B1. The following applies: with bbs2_human BBS2, Q9BXC9.
Regarding Y623K, the “effect of a mutation on the interaction” value is listed as “with no effect”.

Take F632A: the “effect of a mutation on the interaction” value is given as “with no effect”.

On to F632K, for which the “effect of a mutation on the interaction” value was “with no effect”.

Regarding F632E, the “effect of a mutation on the interaction” value is “with no effect”.

On to F624N, for which the “effect of a mutation on the interaction” value is “disrupting interaction strength”.

Regarding F624E, the “effect of a mutation on the interaction” value was “with no effect”.

For F624A, the “effect of a mutation on the interaction” value was “with no effect”.

Consider F624K, for which the “effect of a mutation on the interaction” value is recorded as “with no effect”.

N614E: the “effect of a mutation on the interaction” value was “with no effect”.

N614A: the “effect of a mutation on the interaction” value is on record as “with no effect”.

Consider N614K, for which the “effect of a mutation on the interaction” value is given as “with no effect”.

For Y599E, the “effect of a mutation on the interaction” value was “with no effect”.

Turning to Y599K, the “effect of a mutation on the interaction” value is given as “with no effect”.

Take Y599A: the “effect of a mutation on the interaction” value is recorded as “with no effect”.

Take E615K: the “effect of a mutation on the interaction” value is “with no effect”.

Take E615A: the “effect of a mutation on the interaction” value was “with no effect”.

Take K594A: the “effect of a mutation on the interaction” value is listed as “with no effect”.

K594E: the “effect of a mutation on the interaction” value is listed as “with no effect”.

For the variant Y645A, the “effect of a mutation on the interaction” value is reported as “with no effect”.

Turning to Y645E, the “effect of a mutation on the interaction” value is reported as “with no effect”.

Take Y645K: the “effect of a mutation on the interaction” value is on record as “with no effect”.

Regarding G638E, the “effect of a mutation on the interaction” value is on record as “with no effect”.

Regarding G638A, the “effect of a mutation on the interaction” value is recorded as “with no effect”.

Consider G638K, for which the “effect of a mutation on the interaction” value is “with no effect”.

On to E647K, for which the “effect of a mutation on the interaction” value is “with no effect”.

In the case of E647A, the “effect of a mutation on the interaction” value was “with no effect”.

For the variant Q605K, the “effect of a mutation on the interaction” value is “with no effect”.

Turning to Q605A, the “effect of a mutation on the interaction” value was “with no effect”.

In the case of Q605E, the “effect of a mutation on the interaction” value is given as “with no effect”.

Regarding E604A, the “effect of a mutation on the interaction” value was “with no effect”.

In the case of E604K, the “effect of a mutation on the interaction” value is given as “with no effect”.

Take Q627K: the “effect of a mutation on the interaction” value is listed as “with no effect”.

On to Q627A, for which the “effect of a mutation on the interaction” value is on record as “with no effect”.

As for Q627E, the “effect of a mutation on the interaction” value is reported as “with no effect”.

Take L616K: the “effect of a mutation on the interaction” value was “with no effect”.

As to L616E, the “effect of a mutation on the interaction” value was “with no effect”.

Regarding L616A, the “effect of a mutation on the interaction” value was “with no effect”.

Turning to L620K, the “effect of a mutation on the interaction” value was “with no effect”.

On to L620A, for which the “effect of a mutation on the interaction” value is reported as “with no effect”.

Consider L620E, for which the “effect of a mutation on the interaction” value is on record as “with no effect”.

With R598E, the “effect of a mutation on the interaction” value is on record as “with no effect”.

On to R598K, for which the “effect of a mutation on the interaction” value is given as “with no effect”.

R598A: the “effect of a mutation on the interaction” value is listed as “with no effect”.

Take R598L: the “effect of a mutation on the interaction” value is “disrupting interaction strength”.

Turning to R619E, the “effect of a mutation on the interaction” value is reported as “with no effect”.

As for R619A, the “effect of a mutation on the interaction” value is “with no effect”.

With R619K, the “effect of a mutation on the interaction” value is “with no effect”.

Turning to L609A, the “effect of a mutation on the interaction” value is “with no effect”.

As to L609E, the “effect of a mutation on the interaction” value is listed as “with no effect”.

L609K: the “effect of a mutation on the interaction” value is reported as “with no effect”.

On to E607A, for which the “effect of a mutation on the interaction” value is recorded as “with no effect”.

For E607K, the “effect of a mutation on the interaction” value was “with no effect”.

C634A: the “effect of a mutation on the interaction” value is on record as “with no effect”.

With C634K, the “effect of a mutation on the interaction” value is “with no effect”.

With C634E, the “effect of a mutation on the interaction” value is given as “with no effect”.

On to S596E, for which the “effect of a mutation on the interaction” value was “with no effect”.

As to S596K, the “effect of a mutation on the interaction” value is “with no effect”.

In the case of S596A, the “effect of a mutation on the interaction” value is listed as “with no effect”.

Take Q597R: the “effect of a mutation on the interaction” value is on record as “disrupting interaction strength”.

For the variant Q597K, the “effect of a mutation on the interaction” value is recorded as “with no effect”.

For the variant Q597A, the “effect of a mutation on the interaction” value is on record as “with no effect”.

Q597E: the “effect of a mutation on the interaction” value is “with no effect”.

With S637K, the “effect of a mutation on the interaction” value is recorded as “with no effect”.

For the variant S637A, the “effect of a mutation on the interaction” value is on record as “with no effect”.

In the case of S637E, the “effect of a mutation on the interaction” value is listed as “with no effect”.

Turning to L642E, the “effect of a mutation on the interaction” value is listed as “with no effect”.

L642K: the “effect of a mutation on the interaction” value is reported as “with no effect”.

Turning to L642A, the “effect of a mutation on the interaction” value is listed as “with no effect”.

For the variant E622A, the “effect of a mutation on the interaction” value is listed as “with no effect”.

E622K: the “effect of a mutation on the interaction” value was “with no effect”.

Turning to L591E, the “effect of a mutation on the interaction” value was “with no effect”.

For the variant L591K, the “effect of a mutation on the interaction” value is recorded as “with no effect”.

Consider L591A, for which the “effect of a mutation on the interaction” value is “with no effect”.

Turning to S635A, the “effect of a mutation on the interaction” value is recorded as “with no effect”.

Turning to S635E, the “effect of a mutation on the interaction” value is given as “with no effect”.

Turning to S635K, the “effect of a mutation on the interaction” value is “with no effect”.

For the variant L611A, the “effect of a mutation on the interaction” value is recorded as “with no effect”.

For the variant L611E, the “effect of a mutation on the interaction” value is on record as “with no effect”.

As for L611K, the “effect of a mutation on the interaction” value is “with no effect”.

As to D650K, the “effect of a mutation on the interaction” value is given as “with no effect”.

As for D650A, the “effect of a mutation on the interaction” value is “with no effect”.

D650E: the “effect of a mutation on the interaction” value was “with no effect”.

On to R600A, for which the “effect of a mutation on the interaction” value is given as “with no effect”.

As to R600K, the “effect of a mutation on the interaction” value is on record as “with no effect”.

As for R600E, the “effect of a mutation on the interaction” value is “with no effect”.

Consider R600G, for which the “effect of a mutation on the interaction” value is given as “disrupting interaction strength”.

G628K: the “effect of a mutation on the interaction” value is recorded as “with no effect”.

Regarding G628E, the “effect of a mutation on the interaction” value is recorded as “disrupting interaction strength”.

With G628A, the “effect of a mutation on the interaction” value is “with no effect”.

In the case of F646E, the “effect of a mutation on the interaction” value is “with no effect”.

On to F646A, for which the “effect of a mutation on the interaction” value is reported as “with no effect”.

Consider F646K, for which the “effect of a mutation on the interaction” value was “with no effect”.
